{"source": "patent US20030004317A1", "about": "(GlaxoSmithKline, published 2003)", "key": {"[1]": {"target": "native cell surface receptor on R-SMC", "assay": "cell-based or functional assay"}, "[2]": {"target": "T1, human αvβ3 receptor protein purified from human placenta (human, UniProt P06756 31-1048; P05106 27-788)", "T1 construct": "mature; Detergent-solubilised whole heterodimer from tissue; coated on plates (ELISA), inserted in a hybrid bilayer membrane or passed in solution (BIAcore); also called vitronectin receptor; αβ3 receptor", "T1 sequence (P06756 31-1048, form in doubt, chain 1 of 2)": "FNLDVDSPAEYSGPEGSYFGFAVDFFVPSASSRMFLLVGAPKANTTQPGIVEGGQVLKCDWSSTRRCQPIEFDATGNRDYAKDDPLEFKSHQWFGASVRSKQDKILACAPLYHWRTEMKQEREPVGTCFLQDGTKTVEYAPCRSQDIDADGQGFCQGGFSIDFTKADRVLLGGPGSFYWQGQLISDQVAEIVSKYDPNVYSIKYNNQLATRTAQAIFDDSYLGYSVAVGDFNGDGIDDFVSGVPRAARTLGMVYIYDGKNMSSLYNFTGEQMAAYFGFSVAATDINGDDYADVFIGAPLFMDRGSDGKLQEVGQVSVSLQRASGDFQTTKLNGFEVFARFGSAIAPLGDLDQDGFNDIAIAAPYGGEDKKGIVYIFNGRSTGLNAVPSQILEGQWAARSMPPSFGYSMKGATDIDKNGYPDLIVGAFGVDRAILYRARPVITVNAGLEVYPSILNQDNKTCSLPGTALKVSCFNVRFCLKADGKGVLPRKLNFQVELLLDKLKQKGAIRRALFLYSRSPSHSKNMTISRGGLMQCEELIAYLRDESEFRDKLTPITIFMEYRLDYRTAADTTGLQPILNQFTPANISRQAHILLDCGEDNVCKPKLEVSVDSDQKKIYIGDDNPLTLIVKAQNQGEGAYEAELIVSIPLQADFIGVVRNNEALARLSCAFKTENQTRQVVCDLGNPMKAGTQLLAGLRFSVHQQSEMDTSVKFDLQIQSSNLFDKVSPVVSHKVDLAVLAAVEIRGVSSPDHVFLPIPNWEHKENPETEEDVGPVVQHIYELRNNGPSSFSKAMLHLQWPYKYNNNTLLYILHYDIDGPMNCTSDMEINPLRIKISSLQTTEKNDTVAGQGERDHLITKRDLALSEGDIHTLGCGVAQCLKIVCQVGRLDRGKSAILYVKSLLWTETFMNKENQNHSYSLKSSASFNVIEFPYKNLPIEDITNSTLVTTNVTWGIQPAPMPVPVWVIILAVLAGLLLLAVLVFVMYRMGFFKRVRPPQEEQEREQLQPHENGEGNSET", "T1 sequence (P05106 27-788, form in doubt, chain 2 of 2)": "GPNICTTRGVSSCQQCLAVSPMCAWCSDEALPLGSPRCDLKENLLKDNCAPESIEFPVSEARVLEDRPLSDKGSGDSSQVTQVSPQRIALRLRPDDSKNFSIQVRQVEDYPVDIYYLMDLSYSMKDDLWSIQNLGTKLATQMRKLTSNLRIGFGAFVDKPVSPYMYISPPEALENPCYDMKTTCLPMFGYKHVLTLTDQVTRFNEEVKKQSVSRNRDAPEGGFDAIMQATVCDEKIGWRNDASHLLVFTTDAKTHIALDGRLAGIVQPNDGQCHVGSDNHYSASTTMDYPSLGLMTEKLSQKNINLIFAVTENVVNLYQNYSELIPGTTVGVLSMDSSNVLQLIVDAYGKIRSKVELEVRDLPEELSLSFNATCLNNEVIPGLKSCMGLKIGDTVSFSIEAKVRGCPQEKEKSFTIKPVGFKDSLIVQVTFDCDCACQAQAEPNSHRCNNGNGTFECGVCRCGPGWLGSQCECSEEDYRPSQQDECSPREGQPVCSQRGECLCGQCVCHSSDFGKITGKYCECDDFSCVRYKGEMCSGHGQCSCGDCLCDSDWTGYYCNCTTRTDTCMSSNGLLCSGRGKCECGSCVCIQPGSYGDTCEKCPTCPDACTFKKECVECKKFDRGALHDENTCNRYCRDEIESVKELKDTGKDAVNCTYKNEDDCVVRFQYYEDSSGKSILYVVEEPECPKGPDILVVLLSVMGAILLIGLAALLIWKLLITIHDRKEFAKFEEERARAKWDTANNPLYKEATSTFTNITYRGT", "assay": "BIAcore, receptor immobilized in a hybrid bilayer membrane, mAb in solution (100, 25, 6 nM)", "procedure": "(§1) The receptors was immobilized by inserting it into a phospholipid vesicle and producing a hybrid bilayer membrane on a hydrophobic sensor surface. […] Samples of the mAb were passed over this surface and the rates at which they bound and then dissociated from the surface were measured and analyzed using software provided with the instrument."}, "[3]": {"target": "T2, human αvβ5 receptor protein purified from human placenta (human, UniProt P06756 31-1048; P18084 24-799)", "T2 construct": "mature; Detergent-solubilised whole heterodimer from tissue", "T2 sequence (P06756 31-1048, form in doubt, chain 1 of 2)": "as the sequence (P06756 31-1048, form in doubt, chain 1 of 2) above", "T2 sequence (P18084 24-799, form in doubt, chain 2 of 2)": "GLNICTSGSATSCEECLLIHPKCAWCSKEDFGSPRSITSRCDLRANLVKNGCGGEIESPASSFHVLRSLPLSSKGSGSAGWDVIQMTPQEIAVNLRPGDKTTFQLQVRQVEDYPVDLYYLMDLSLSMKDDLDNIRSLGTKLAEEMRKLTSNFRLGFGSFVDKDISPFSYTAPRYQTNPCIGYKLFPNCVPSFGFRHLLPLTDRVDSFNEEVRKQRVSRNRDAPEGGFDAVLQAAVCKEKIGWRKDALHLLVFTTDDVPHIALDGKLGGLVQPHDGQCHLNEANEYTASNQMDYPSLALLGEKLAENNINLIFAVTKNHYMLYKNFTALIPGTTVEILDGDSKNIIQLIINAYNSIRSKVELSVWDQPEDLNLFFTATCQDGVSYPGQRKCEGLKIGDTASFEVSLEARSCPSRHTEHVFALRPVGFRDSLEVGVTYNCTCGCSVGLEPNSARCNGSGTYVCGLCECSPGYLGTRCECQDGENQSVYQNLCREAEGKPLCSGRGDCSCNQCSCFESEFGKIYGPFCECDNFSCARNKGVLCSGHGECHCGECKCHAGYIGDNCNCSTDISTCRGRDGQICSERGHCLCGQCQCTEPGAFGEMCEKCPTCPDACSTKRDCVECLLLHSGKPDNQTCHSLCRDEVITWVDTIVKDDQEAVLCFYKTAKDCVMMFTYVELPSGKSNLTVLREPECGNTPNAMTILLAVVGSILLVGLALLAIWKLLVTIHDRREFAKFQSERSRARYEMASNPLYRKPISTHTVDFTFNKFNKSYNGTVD", "assay": "BIAcore, receptor immobilized in a hybrid bilayer membrane, mAb in solution (100, 25, 6 nM)", "procedure": "as §1"}, "[4]": {"target": "T1, human αvβ3 receptor protein purified …", "assay": "BIAcore, receptor immobilized in a hybrid bilayer membrane, mAb in solution", "procedure": "as §1"}}}
{"molecule": "murine monoclonal antibody LM609", "values": [{"measurement": "Inhib (%) R-SMC (50 µg/ml)", "setting": "[1]", "value": 43, "unit": "%"}]}
{"molecule": "murine monoclonal antibody D12 (antibody, V domains shown) VH: EIQLQQSGPEVVKPGASVKVSCKASGYAFTSYNMYWVKQSHGKSLEWIGYIDPYNGDTFYNQKFKGKATLTVDKSSSTAYMHLNSLTSEDSAVFYCARQNYGSFAYWGQGTLVTVSA VL: DIVLTQSPATLSVTPGDSVSLSCRASQSISNHLHWYQQRSHESPRLLIKYASQSISGIPSRFRGSGSGTDFTLNINILETEDFGMYFCQQSNSWPFTFGSGTNLEIKR", "values": [{"measurement": "Kd", "setting": "[2]", "value": 1300, "unit": "pM"}, {"measurement": "Inhib (%) R-SMC (50 µg/ml)", "setting": "[1]", "value": 66, "unit": "%"}]}
{"molecule": "murine monoclonal antibody B9 (antibody, mouse IgG1, V domains shown, also called mAb B9; Murine B9) VH: QVQLQQSGAELMKPGASVKISCKATGYTFSSYWIEWVKQRPGHGLEWIGEILPRSGNTNYNEKFKGKATFTAETSSNTAYMQLSSLTPEDSAVYYCSSRGVRGSMDYWGQGTSVTVSS VL: DIQMTQTTSSLSASLGDRVTITCRSSQDISNFLNWYQQKPDGTVKLLIYYTSTLHSGVPSRFSGSGSGTDYSLTISNLEQEDIATYFCQQGNTLPWTFGGGTNLEIKR", "values": [{"measurement": "Kd", "setting": "[3]", "value": 110, "unit": "pM"}, {"measurement": "Kd", "setting": "[2]", "value": 290, "unit": "pM"}, {"measurement": "fold higher binding affinity (KD) than D12", "setting": "[4]", "value": "~5", "unit": "fold"}]}
